Experimental findings from the DeepSol protein solubility set are described below.

This data set in a line: soluble on expression in E. coli; label from the status in PepcDB or PDB records.
For the sequence “MKTPRLLQYLAYPQKITGPIIEAELRDVAIGELCEIRRGWHQKQVVARAQVVGLQRERTVLSLIGNAQGLSRDVVLYPTGRALSAWVGYSVLGAVLDPTGKIVERFTPEVAPISEERVIDVAPPSYASRVGVREPLITGVRAIDGLLTCGVGQRMGIFASAGCGKTMLMHMLIEQTEADVFVIGLIGERGREVTEFVDMLRASHKKEKCVLVFATSDFPSVDRCNAAQLATTVAEYFRDQGKRVVLFIDSMTRYARALRDVALASGERPARRGYPASVFDNLPRLLERPGATSEGSITAFYTVLLESEEEADPMADEIRSILDGHLYLSRKLAGQGHYPAIDVLKSVSRVFGQVTTPTHAEQASAVRKLMTRLEELQLFIDLGEYRPGENIDNDRAMQMRDSLKAWLCQPVAQYSSFDDTLSGMNAFADQN”, the “soluble on expression in E. coli” value is listed as “not soluble”.

On to “MQAWIQQGLHGMQMGGRVGNYDQTFVVYGPVFLPNATQSKISEINYGGKILLPSSALNLLMQYNIPMPMLFKLTNMAVQRVTHCGVLEFSAPEGQAILPLWMMQQLGLDDGDTIRIESATLPKATFAKLKPMSLEFLNITNPKAVLEVELRKYACLTKNDRIPTSYAGQTLEFLVVDLKPANSVCIIECDVNLDFDPPEGYVEQPRQVTPAVTAKPPAPDASAFIGAGQKAGGSGGTGQNATSVFGGAGRRLDGKKKPSSSVSLSDGTGVSTSNAAPVANDLPAIPPVVVNEDYKPGRVSFLRYDYKRVDVLEKELREKEASKAGQPSNVFRGGNRTLRGAR”, for which the “soluble on expression in E. coli” value is “not soluble”.

Take “MKIISAEQVHQNLNFEELIPLLKQSFSRPFSMPQRQVYSLAPEQSENHDAFALLPSWNEEVIGNKAFTYFPDNAKKHDLPGLFSKIMLFKRQTGEPLALVDGTSVTYWRTAAISALASQLLSRKNSQHLMLFGTGNLASYLVKAHLTVRDIKQVTLWGRNAKKVSKLIADFSILYPAVTFKTSVDVNAEVASADIICCATGAKTPLFDGNSVSAGCHIDCLGNHMTDARECDTTTILRARVFVDSLTNTLNEAGELLIPMAEDAFNKDEIVGELADMCKTPSMLRQSSDEITLFKSVGTAISDLVAAHSVVEKLAD”: the “soluble on expression in E. coli” value is recorded as “not soluble”.

Regarding “MLASARRALHPGHPPAIHRAMNSEIDPGRCPLCQQSNRCTLAYPTSATQACWCFTTEIDAAVLERIPAELRRRACLCPRCAQLLPPDADD”, the “soluble on expression in E. coli” value is “not soluble”.

For the sequence “MQNEKLDHESVTQAMQPKDTPELRALYKSFEEESIIPLWTQLGDLMPIHPKSKAVPHVWKWSTLLRLARKSGELVPVGRGGERRALGLANPGLGGNAYISPTMWAGIQYLGPRETAPEHRHSQNAFRFVVEGEGVWTVVNGDPVRMSRGDLLLTPGWCFHGHMNDTDQPMAWIDGLDIPFSQQMDVGFFEFGSDRVTDYATPNFSRGERLWCHPGLRPLSGLQNTVASPIGAYRWEFTDRALTEQLLLEDEGQPATVAPGHAAIRYVNPTTGGDVMPTLRCEFHRLRAGTETATRNEVGSTVFQVFEGAGAVVMNGETTKLEKGDMFVVPSWVPWSLQAETQFDLFRFSDAPIMEALSFMRTKIEGQK”, the “soluble on expression in E. coli” value is given as “soluble”.

As for “MDESFDSSVVPGSLTSDDRAIFNEQTLKNGDENSKSSLEVMANCVYLANSTILRERKVIPAEYFQDFQVYGDVSGYTLRQDIPEGRSVSSKLLASHDAIRQKLLQKLAIVVEESLNTNPVETFVWTFVYDSTTSASAEIGYGGRKSKFVVNYLNMDDTAQQFCKMFSELRNVLSLLRPLPRGLIPSMKVAYRGEPEFVPGFQQVDDFVNPEQINLGAVSFPHGNGFQFAYASKFMVEQPSAIRPPVEVSHFEDDLLNSTITPIEVVRDNTMNCAENPELDEIYFSPGRQEVRMDEDVANESIRCNPSMASEMMVLQSEYNVLIADNDEVPMVVERERSPIVKAAKKRSTRAPAVPITPTEPASPVESPVKEQPQKAPKAQMRRSSKRTTKNNERCEQKEEEPIVNPKRRSARRLVPPVEVDEQPEEQNDDDAQNSLQIDSDAQNSLQIDSDAIITSPEKRNESKSAIPEEAADLDNTTSEKQESSTARYGVSNTSINRKKPDPVANPVSEEAQVDLANGSIPDKRPRKRKYGRVSSILDVADLPTDDTVEEDVRESPIYGRVPSILDVARAEENDAQNDAQDAQNEIAVEGLADLSIDTEQHEEAAPINVTGHQSESVPIIVTEHQSEEAQTVVTEQPAGAASVIAAERHYGRVSSILDVAGSFADVDPSGAAPAIATERHYGRVSSILDVAGSLSDVDPQEDTESSTQNQSTSKKFKPNPPKAMRYGQSPNMPSRRGN”, the “soluble on expression in E. coli” value was “not soluble”.

Take “MGSDKIHHHHHHMSELRQQCLWEHVSKPTVAAQALAGEHKADVCVIGGGITGLSAAIHLLEQGKSVIVLEAWKIGHGGSGRNVGLVNAGTWIRPDDVEATLGQKQGSRLNKVLGEAPAEVFAMIERLGIDCQAQHKGTLHMAHNATGIADLEARHEQWRRRGADVELLTGAQCQEYCGTDKISAALLDRRAGTINPMGYTQGLAAAVTRLGGKIFQQSSVEGLEREGDGWRVKTARGAVRAEKVVISTGAYTEGDWSNLQKQFFRGYYYQVASKPLQGIAADKVLPHGQGSWDTRTVLSSIRRDDQGRLLLGSLGRVDNKPAWFVRSWADRIQSHYYPELGKVEWEMHWTGCIDFTPDHLMRLFEPAPGLVAVTGYNGRGNTTGTVIGRAFAEFLLKGEADSLPIPFSPMSGVSAPSLRTAFYESGFSLYHAGQCLRVVL”: the “soluble on expression in E. coli” value was “not soluble”.

For “MGSDKIHHHHHHMKKATDKNPTTTSKPNTITPLFTTNYNVYINHTDAGGIVYHANHLVFFENCRRDWFTQLGLNGYFLESNDGQIQHFVVTQADLQYKHAILLDEVINVRIDNVEIKPASIVFYQSIYRQQSQDNTANNAKAVLLSSTKIVVACVQNQITPDSIDNNASNNTAPMRPVRVPQKLRDAIERAIAEHIVEIL”, the “soluble on expression in E. coli” value is recorded as “not soluble”.

With “MGSDKIHHHHHHMTSMEFKIKRDGLALQARLETPAAPSSTLVILMHGFTADMGYDTTQFVPQLAQALVAHGLAVLRFDFNGHGCSEGRFQDMTVINEIADAKAVLDEALTLHYDHIVLAGHSQGGVVASMLAGYYPDVVDKLILMAPAATLKSDAQQGVLQGATYDPQHIPAYLNIRDGLKVGGFYLRTAQQLPIYEVAQQYAGSVTLIHVTADTVVSPQASEKYHEVYQHSQLHWVQDGGHRFSGDARATAIQLALAAFK”, the “soluble on expression in E. coli” value was “not soluble”.

In the case of “MGSDKIHHHHHHLNAAAQTTPEIRRPQLGWTMLETPRFLSETALLALAWPMLAKAPQGDGHPVMVLPGFATNDTMTVLLRSFLARLGYQVFPWDLGWNLDQHSAGENGEHLAARIDAIAAETGRKVSLVGWSLGGVIAREAARRDHGGLRQVVTLGSPFTGNPRATSLTSLYELLTGNKASSEKSAARYARGHHPLPVPSTAIFSRTDGITAWENCVSETDDRTENIEVHCSHFGFVANPGVFWAVADRLAQPEGQWRKFDPKGCFAAFYP”, the “soluble on expression in E. coli” value is recorded as “not soluble”.

As for “MGSSHHHHHHSSGLVPRGSHMEQMHSLESSLPPEQPPTKQAIESLNLELSQEFKLAANAVTRLYRVANEKNSLTKHQGYLTCLDDILCALDSNVTADELRAWCYKRRNDILSNSQDKSLNPVKERERKLNKFSENQHRENEAHKEPFEKDSAVKYNFSFNESNGDLSNINENIAPKFRLSMPPLSVEHPPRNASRIKSWKARTINHGRGDTRNLNDITGLGHERERDRENTHYEKKPKLDSDSEVDIRSFRQDMDL”, the “soluble on expression in E. coli” value is recorded as “soluble”.

As to “MNETIAFRPEGRASIKDVVVNYTLASLDELEQLHPALNLLAHPSIVRGSHDFFVRCYDAGVQHAQAGAAETVAVLPDSLPQERQRSGLLCAAAGRLDALRQPLTHNRLCDLASQFCAGMADVDSETRSGFYTVRSISLPVYRRLLRDQHSHGVCLQQALLHLLAWKSDSPWARQQAQRLLWQGGVLGDKGEFALMTLDDELRERQIGWPGLWSLLAVTGFLAKFPAGPIFAD”, the “soluble on expression in E. coli” value was “not soluble”.

Turning to “MGSDKIHHHHHHMLKINQVKLTQVNLAQINTAKVNTIPAKVVHKMMKKVVITTLIAMNLMQVSFAADVVEKNETKVVAKPVKVAPVLNMPMAAKTELNATLYSRSHIPITASLNARVDYLVEPGDFVAQGDKLAGMDLLPIQLRQAEQKAQISRARINVAYIKNELSRLQALSKTQAVSQFKLDQMRSEHDLAAADLEIAQLKLAQINEQLSRAIITAPFAGIITERLIRVGSEVNRGDILLRLLDTEHLEARLYIPIKYLAFINKGDKLSMSASDQKTLAAVTAKIPRADPRSQTFEVRLNIPKAFNKHWAAGQLVSVSVPTQKATASLTVPRDALILRKSGSYVIKVNADNTVSRLAVVVGKGNKERVAITGSLKHGDNVAIRGAERLADGDKVVIQ”, the “soluble on expression in E. coli” value is listed as “not soluble”.

On to “MSDVSRILKEARSQSRLTTLDYAEQIFDDFMELHGDRHFADDGAIVGGIGLLDGQAVTVIGVQKGKNLQDNLNRNFGQPNPEGYRKALRLMKQAEKFKRPVVTFINTAGAYPGIGAEERGQGEAIARNLLEMSDLKVPIIAIIIGEGGSGGALALAVADKVWMLEHTMYAVLSPEGFASILWKDGSRSIEAAELMKITAGELLKMEVVDKVIPEHGYFSSEIIQMLKTNLIEELKNLDQYPLNDLLEKRYQRFRKY”, for which the “soluble on expression in E. coli” value was “not soluble”.

Regarding “MGSDKIHHHHHHGMDKLSTKNYHTLLEVINDQEMIASPNTQLDSQVIANSSPFGGEVVTNRSKNIDGYTVEWSNLRSRYSFFRNSIDWNEVYPGSYYSSKNFYEYNRQTKQKVASFYNPAITNYYGGIKNELSELDKMENQVAEVAISFDKPYPYEEVRKMLPSNVNLVWLYVYSETVNEAEGPSGTLPYGFQLSMDDQNEIFDPENDKQHFFETLEKSPLFADNQEGQKFIQQNKNKKVEKLPIWGVMLTGQTKNFKALQNEPFVRGASIGVTAPIVPYIQPEK”, the “soluble on expression in E. coli” value is recorded as “not soluble”.

With “MRRAEMLLLKSLAETLMADRDNRHDDLQATMRLAHLSSPEMILYMVNRVLELEESIERIAAVLQKLSADEPMPLEETPPEPAFEPALQSRATETAET”, the “soluble on expression in E. coli” value is listed as “not soluble”.

For the sequence “AHHHHHHGSSEVYRLTCIVCPLSCSIEVEIEAGKIKDIKGYTCPRGKEWAIEEIRAPKRVVMSVIPVEGGKLPTVSVKTEKPIPKDKIPELMKMLAKLKLKAPVKVGQVVGEFEGVKIIATREA”, the “soluble on expression in E. coli” value is recorded as “soluble”.

“MAHHHHHHMTTLYDELYLLFDEYIVRNCKQPNTYESLFCKKEFVQFAKLHGTSVVVTSPKKEIKNKDEIIDELIYAFKLFAKYTSMCDFFSKNEEVDDINTIYLKFLLIPYILGVLCYETISMEIRSDRLKEAKLYFGEFINVVNVYKIAPVEDYLLDEGGEVNQAMNRRNIKVKRAKDEKKLQDFYDDMIKMNVKKGSSQNYNHLCFADHMEEEQIREIYLSLIKCKCLQTLNMMDLIDTEIEVLEMRNRQQVQDKQHQNGKPTQGTKDTHDGQPPHQNKHPKDGIKKPWLFTIKKNMPLADMTQMRNYYRDLVFTPAHNLPTISLEECAKIEMEYALKGEGMAPRSEEERRGNPKSGTIKGAAQNGTDDEEDYEKSSKEESEKELMDREWDDWKDMHQKGIGNKNRNVA”: the “soluble on expression in E. coli” value is given as “not soluble”.

For “MKFTPPPASLRNPLIIPEKIMMGPGPSNCSKRVLTAMTNTVLSNFHAELFRTMDEVKDGLRYIFQTENRATMCVSGSAHAGMEAMLSNLLEEGDRVLIAVNGIWAERAVEMSERYGADVRTIEGPPDRPFSLETLARAIELHQPKCLFLTHGDSSSGLLQPLEGVGQICHQHDCLLIVDAVASLCGVPFYMDKWEIDAVYTGAQKVLGAPPGITPISISPKALDVIRNRRTKSKVFYWDLLLLGNYWGCYDEPKRYHHTVASNLIFALREALAQIAEEGLENQIKRRIECAQILYEGLGKMGLDIFVKDPRHRLPTVTGIMIPKGVDWWKVSQYAMNNFSLEVQGGLGPTFGKAWRVGIMGECSTVQKIQFYLYGFKESLKATHPDYIFEESNGFH”, the “soluble on expression in E. coli” value is given as “soluble”.

“MALDKLLENEAQSEIERIRAEARGRAEKIVADARERAQTLLDSRQRLLENQRQAGLVRARSAADLELNAARLTASESGVTQVYQMVEDYLGNVTSAPEYGNILSRLIQEGLQAVPDAEAIEVNPAEMNVARHLVSGVEVRENPSIKGGVRVVARGGKSGVTNTLSGRLERVKADMAPQISRLLAE”: the “soluble on expression in E. coli” value was “soluble”.
